Results: patent publication US20190060366A1, “HIGHLY ENGRAFTABLE HEMATOPOIETIC STEM CELLS” (President and Fellows of Harvard College, priority 2016, published 2019)

Key:
[1] = tested on: peripheral blood mononuclear cells (PBMCs); experiment: Limiting dilution competitive transplants and secondary transplants of mobilized grafts; type: in vivo; details: secondarily transplanted mice; n=16 mice/group, P<0.01
[2] = tested on: CD34+ cells; details: cited from earlier work

B1: G-CSF: hematopoietic growth factor used clinically to mobilize HSC and HPC; comparator regimen (protein, UniProt P09919 31-207, looked up)
Granulocyte …: TPLGPASSLPQSFLLKCLEQVRKIQGDGAALQEKLVSECATYKLCHPEELVLLGHSLGIPWAPLSSCPSQALQLAGCLSQLHSGLFLYQGLLQALEGISPELGPTLDTLQLDVADFATTIWQQMEELGMAPALQPTQGAMPAFASAFQRRAGGVLVASHLQSFLEVSYRVLRHLAQP
competitiveness of graft as measured by contribution to chimerism [1]: remained static
patients that fail to mobilize an optimal CD34+ cell dose for autologous transplantation ([2]; autologous transplantation patients): Up to 60%
poor mobilization in response to G-CSF, share of normal, healthy donors ([2]; normal, healthy donors): 15%
